Reference: the nanobody polyreactivity screen of Harvey et al. (2022)

Assay: yeast display, Sf9 membrane polyspecificity reagent, FACS + sequencing; frameworks hold sequencing errors
How it was run: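 Nanobodies from a synthetic yeast display library (Saccharomyces cerevisiae BJ5465), induced 36–48 hours with galactose, were stained 1 hour at 4 °C with 10% biotinylated, detergent-solubilized Sf9 membrane reagent, enriched on streptavidin microbeads, then FACS-sorted. Anti-HA (expression) and streptavidin (reagent binding) fluorescence set low and high (top ~1%) gates. Polyreactivity labels come from the gate of origin. Genes were colony-PCR amplified, MiSeq 2 × 250 sequenced and filtered by CDR length.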

Row | Sequence | polyreactivity (PSR sort gate)
1 | QVQLVESGGGLVQAGGSLRLSCAASGSIYGYTMGWYRPAPGKERELVAAINRRADRTYYADSVKGRYTISRDNAKNTVYLQMNSLKPEDTAVYYCNKGGWYTLGYWGQGTQVTVSS | high polyreactivity
2 | QVQLVESGGGLVQAGGSLRLSCAASGRIFTTYAMGWYRQAPGKERELVASITTTDTRTYADSVKGRFTISRDNAKNTVYLQMNSLKPEDTAVYNCAKDRLNKGRYYRAASDYWGQGTQVTVSS | low polyreactivity
3 | QVQLVESGGGLVQAGGSLRLSCAASGRIFRIYTMVWYRQAPGKERELVAVINSSGGRTYYADSVKGRFTISRDNAQNTVYLQMNSLKPEDTAVYYCNAVFGGGTMDYWGQGTQVTVSS | high polyreactivity
4 | QLQLVESGGGLVQAGGSLRLSCAASGSIFRINAMGWYRQEPGKESELVSAISTRSGRTYYADSVKVRFTISRDNSKNTVYLQMNSLKPEDTAVYYCARYRTQASGYGGYDYWGQGTQVTVSS | high polyreactivity
5 | QVQLQESGGGLVQAGGSLRLSCAASGTISVHASMGWYRQAPGKERELVAGITDGANTYYADSVKGRFTISRDNSKNTVYLQMNSLIPEDTAVYYCAAYYGTEVHFTYWGQGTQVTVSS | low polyreactivity
6 | QVQLVESGGGLVQAGGSLRLSCAASGSIFRGYAMGWYRQAPEKERELVAAMSRRGGSTYYADSVKGRFTISRDNAKNTVYLQMNSLKPEDTAVYYCAADWLSWFHGYGMYYWGQGTQVTVSS | low polyreactivity
7 | QVQLVESGGGLVQAGGSLRLTCAASGSIFDSNAMGWYRQAPGKERELVADIRGIGGSTFYADSVKWRFTISRDNAKNTVYLQMNSLKPEDTAVYYCAAVGKSPSRFGYWGQGTQVTVSS | low polyreactivity
8 | QVQLVESGGGLVQAGGSLRLSCAASGRIFYDYAMGGSRQAPGKERELVAAISKGGGSTYYADSVKGRFTISRDNAKNTVYLQMYSLKPEDTAVYYCAASSSLTTDTLYDYWGQGTQVTVSS | low polyreactivity
9 | QVQLVESGGGLVQEGGSLRLSCAASGITFDYYAMGLYRQAPGKERELVASISYSGGSTYADSVKGRFTISRDNAKNTVYLQMNSLKPEDTAVYYCAKDSQETAYNTVDYCGQGTQVTVSS | low polyreactivity
10 | QVQLVESGGGLVQAGGSLRLRCAASGISFRRNVMGWCRQAPGKERELVARISRAGSTKYADSVKGRFTISRDTAKNTVYLQMTSLKPEDTAVYYCNKVTRRNGQPYDYWGQGTQVTVSS | high polyreactivity
11 | QVQLVESGGGLVQAGGSLRLSCAASGSIFSYNAMGWYRQAPGKEMELVAAISSGGSTYYADSVKGSFTISRDNAKNTVYLQMNSLKPEDTAVYYCNVYYLIWPYGHQVKRRDYWGQGTQVTVSS | low polyreactivity
12 | QEQLQESGGGLVQAGDSPRLSCAESGYISARTGMGSYRQAPGKEREFVAGIASGTSTHYADSVKGRFTISRDNAKNAVYLQMNSLKPEDTAVYYCAKDYRYIFIYPYGWTRYDYWGQGTQVTVSS | low polyreactivity
13 | QVQLVESGVGLVQAGGSLRLTCAASGRIFVRNAMGWYRQAPGKEMELVARITSSTGRTYYADSVKGRFTISRDNAKNTVYLQFTSLKPEDTAVYYCAVRYFYQFWAYDYWGKGTQVTVSS | high polyreactivity
14 | QVQLVESGGGLVQAGGSLRLSCAASGLIFWYNAMGWDRQATGKEREFVAAITSDGGRTYYADSVKGRFTISRDNAKNTVYLQMNSLKTEDTAVYYCTARGYGYLGRKGGYSYGYYYWGQGTQVTVSS | low polyreactivity
15 | QVQLVESGGGLVQAGGSLRLSCAASGSIFAINAMGLYRQAPGKERELVARISWSGGRTYYADSVKGRFTISRDNAKNSVYLQMNSLKPEVTAVYYCAARYYWGQVTQVTVSS | high polyreactivity
16 | QVQLVESGGGLVQAGGSLRLSCAASGIIFSSYAMGWYRQAPGKERELVAAITRGGSTNYADSVKGRFTISRDNAKNTVYLQMNSLKPEDTAVYYCNALWRAYRNYHYIVKNDYWGEGTQVTVSS | high polyreactivity
17 | QVHLVESGGGLVQAGGSLRLSCAASGSIFDVNAMGWYRQSPGKERELVASIDNSGTTNYADSVKGRFTISRDNAKNTVYLLMNSLKPEDTAVYYGAAEYESGDYWGQGTQVTVSS | low polyreactivity
18 | QVQLVESGGGLVQAGGSLRLSCAASGIIFGRYAMGWYRQAPGKERELVAAITSGGSTSYADSVKGRFTISRDNAKNTVYLQMNSLKPEDTAVYYCAVVFVWGWPGYYWGQGTQVTVSS | high polyreactivity
19 | QVQLVESGGGLVQAGGSLRLSCAASGRTFFPYAMGWYRQAPGKEREFVAAITKTDDTTYYADSVKGRFTISRDNAKNTVYLQMNSLKPEDTAVYYCNAGDTQIRFYYWGQGTQVNVSS | low polyreactivity
20 | QVQLQESGGGLVQAGGSLCLSCAASGTIFFDGDMGWYRQAPGKEREFVAAINPGGSAYYADSVKGRLPLAAITHTVYLQMNSLKPEDTAVYYCAAKLFDVYGYYYWGQGTHVTVSS | low polyreactivity
21 | QVQLVESDGGIVQAGGSLRLTCAASGIIFGYYVMGWYRQEPGKEGELVASITSGGSTNYADSVKGRFTISRDNAKNTVYLQMNSLKPEDTAVYYCAAEERTDTIACWRYPHDYWGQGTQVTVSS | low polyreactivity
22 | QVQLVESGGGLVQAGGSLRLSCAASGSTFLRNAMGWYREAPGKERELVAAISTRGGSTYYADSVKGRFTISRDNAKNTVNLQMNSLKPEDTADYYCAAVATRRYDYWGQGTQVTVSS | high polyreactivity

Row | Sequence | polyreactivity (PSR sort gate)
23 | QVQLVESGGGLVQAGGSLRLSCAASGRIFYYNAMGWYRQAPGKEREFVAAITYRGGSTYYADSVKGRFTISRDNAKNTVYLQMNSLKPEDTAVYYCAARSAWQVAPRGRTVAFDYWGQGTQLTVSS | high polyreactivity
24 | HVQLVESGGGIVQAGGSLRLSSAASGSTFGSNAMGWYRQAPGKERELVAAITYSGGRTYYADSVKGRFTISRDNAKNTVYLQMNSLKPEDTAVYYCAATFGFFYYQYDYWGQGTQVTVSS | low polyreactivity
25 | QVQLVESGGGLVQAGGSLRLSCAASGSTLATYTMGWYRQAPGKERELVAAISFGGSTYYAYSVKGRFTISRDNAKNTVYLQMNSLKPEDTAVYYCAVYGDSYWGAYYYSDGYWGQGTQVTVSS | low polyreactivity
26 | QVQLVESGGGLVQAGGSLRLSCAASGSIFRGNAMGWYRQAPGKERELVAAISSRGGSTYYADSVKGRFTISRDNAKNTVYLQMNSLKPEDTAVYYCGAVRYKYWGVQRSYSWGQGTKVTVSS | high polyreactivity
27 | QVQLDESGGGLVQAGGSLRLSCAASGSTFNIYAMGWYRRAPWQERELVAAITRGGSTNYADSVKGRFTISRDNAKNTVYLQMNSLKPEDTAVYYCAARTAYFTSYGRYYYWGQGTQVTVSS | high polyreactivity
28 | QVQLVESGGGLVQAGGSLRLSCAASGSIFVGNAMGWYRPAPGKERELVAAITGRGSRTYYADSVKGRFTLSRDNAKNTVYLQMNSLKPEDTAVYYCAARYTNYGGFYWGQGTQVTVSS | high polyreactivity
29 | QVQLVESGGGLVQAGGSLRLSCAASGSTFYVYDMGWYRQAPGKEREFVAVISWNGGSTYYADSVKGRFTISRDNAKNTVYLQMNSLKPEDTAVYYCATRRSSGRVTYDYWGQGTQVTVSS | low polyreactivity
30 | QVQLVESGGGLVQAGGSLRLSCAASGRIFTYNAMGWYRQAPGKEWELVAVISRRGGSTYYADSVKGRFTISRDNAKNSVYLQMNSLKPEDTAVYYCAADLPSYAYEFWGQGTQVTVSS | low polyreactivity
31 | QVQLVESGGGLVQAGGSLRLSCAASGRTFRYYAMGWSRQAPGKERELVASITSGGRTYYADSVKGRFTISRDNAKNTVYLQMNSLKPEDTAVYYCAADTPVTASSPPSDYWGQGTQVTVSS | high polyreactivity
32 | QVQLVESGGGLVQAGGSLRLSCAASGTILRPYAMGWYRQAPGKERELVAAISTSGGRTFYADSVKGRFTISRDNAKNTVYLQMYSLNPEDTAVYYCAAVGYRFGSNYWGQGTQVTVSS | high polyreactivity
33 | QVQLVESGGGLVQAGGSLRLSCAASGSNITPNAMGWYRQAPGKERELVAAISSSSDRTYYADSVKGRFTISRDNAKNTVYLQMNSLKPEDTAVYYCAAYAQKRYYWGQGTQVTVSS | high polyreactivity
34 | QVQLVESGGGLVQAGGSHRLSCAASGFIFVRNAMGWYRQAPGKERELVAAISSSGGSTNYADSVKGRFTISRDNAKNTVYLQMNSLKPEDTAVYYCNVVTFRYYYKYGYWGQGTQVTVSS | high polyreactivity
35 | QVQLVESGGGLVQASGSLRLSCAASGLTFYLNAMGWYRPEHGKERELVAGISYTGGSTYYADSVKGRFTISRDNAKNTVYLQMNSLKPEDTAVYSCARDNFYYGVWDYGYWGQGTQVTVSS | low polyreactivity
36 | QVQLVESGGGLFQAGGSLRLSCAASGRTITYYAMGWYRQAPGKERELVAAITWSGGSTYYADSVKGRFTISRDNAKNTVYLQMNSMKPEDTAVYYCAKEFYYSSGFDYWGQGTQVTVSS | low polyreactivity
37 | QVQLVESGGGLVQAGGSLRLSCAASGSTFSGYAMGWDRQAPGNERELVAAITSGGITNYADSVKGRFSLSRDNAKNTVYLQMNSLKPEDTAVYYCAKSVSGIGVGYDYWGQGTQVTVSS | low polyreactivity
38 | QVQLVESGGGLVQAGGSLRLSCAASGFIFGTYAMGWYRQAPGKERELVAAISVGGGSTYYADSVKGRFTISRDTAKNTVYLQMNSLKPEDTAVYYCAAVQLYQKHQITYVAHEYWGQGTQVTVSS | low polyreactivity
39 | QVQLVDSGGGLVQAGGSLRLSCAAYGSTFRGYAMGWYRPAPGKERELVAAISWSGGITYYADSVKGRFTISRDNAKNTVYLQMNRLKPEDTAVYYCAAVWDQVSDRYMLEYCGQGTQVTVSS | high polyreactivity
40 | QVQLVESGGGLVQAGGSLRLSCAATGRISVFYTMRWYRQPPGKATELVAVIRTSVGRTNYADYVKGRFTISRVNAKNTVYLQMNSLKPEDTAVYYCAAGVVSYGYNYYYWGQGTQVTVSS | low polyreactivity
41 | QVQLVESGGGLVQAGGSLRLSCAASGSTFAFYAMGWYRQAPGKERELVAAITWRVGSTYYADSVKGRFTISRDNAKNTVYLQMNSLKPEDTAVYYCAVDIPFYDSDYWGQGTQVTVSS | low polyreactivity
42 | QGQLVESGGGLVQAGGSLRLSCAASGLTLYYYAMGWYIQAPGKERELVAAINRGGSTYYADSVKGRFTISRDNAKNTVYLQMNSLKPEDTAVYYCAVDYGVRDLTYYYWGQGTQVTVSS | low polyreactivity
43 | QVQLVESGGGLVQAGGSLRLSCAASGRIFTYYAKGWYRQAPGKERELVAAISWSGGSTYYADSVKARITISRDNAKKTVYLVMNSLNPEDTAVYYCNAVYPSVYPVSTRYYWGQGTQVTVSS | high polyreactivity
